Data published in the supplement of paper PMC9170038.

Test system: MS2 coat protein
Assay: apparent KD of MS2 coat protein; designed switch direction (-1 OFF switch, 1 ON switch): 1; higher = weaker reporter binding
Procedure, shortened: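 Apparent KD, taken as the median over clusters for each design, was obtained by curve-fitting normalised cluster fluorescence. Designed RNA switches had been transcribed on Illumina chips by stalled E. coli RNA polymerase and titrated with SNAP-549-labelled MS2 coat protein, doubling from 0.7 or 1.5 nM to 3 µM.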

[1] = input ligand: microRNA oligo, concentration not stated

Sequence | apparent KD of MS2 coat protein (input ligand: FMN 200 uM) [nM] | apparent KD of MS2 coat protein [1] [nM] | apparent KD of MS2 coat protein (input ligand: none) [nM] | apparent KD of MS2 coat protein (Eterna round: R95, input ligand: FMN 200 uM) [nM] | apparent KD of MS2 coat protein (Eterna round: R95, input ligand: microRNA oligo, concentration not stated) [nM] | apparent KD of MS2 coat protein (Eterna round: R95, input ligand: none) [nM]
UUGAAGAAUUAAGGAUAUUGAUUACAUAUGUUAAACAUGAGGAUCACCCAUGUGGGUUGCGGUAUCGAGAAGGUAAAUUACUAG [Mat - same State NG 2 - JL mod - D76] (Eterna round: R96, puzzle: Same State NG 2) | 63.3 | 74.1 | 87.3 |  |  | 
AAAUAAAUGACUCAGGAUAUAUCAUAGAAUACAUGAGGAUCACCCAUGUUUUAAUAACAUGUUUGGUAGAAGGGAGUCAAUAAAU [LROPPY Same State 2 - v05_deltaG=1.86] (Eterna round: R96, puzzle: Same State 2) | 25.2 | 78.1 | 105 |  |  | 
AAACAUGAGCGAGGAUAUGCGGAGGAUUACCCUGUAGAAGGCGCAUGUAAAACAACAUGAGGAUCACCCAUGUCAUGUACAUGU (Eterna round: R96, puzzle: Same State NG 1) | 168 | 115 | 226 |  |  | 
AUUAUUAAUAUAGGAUAUGUAAAACAUGAGGAUCACCCAUGUGAUAUCGUGAGUAAGGAGAGAGAACAGAAGGAUAAUUUUUUU [JMF's solution 1] (Eterna round: R96, puzzle: Same State NG 2) | 38.1 | 30.9 | 41.3 |  |  | 
UUACUCAUGUAAGGAUAUGCAGCCGAAACGGCUGCAGAAGGUACUAUAAUACAUGAGGAUCACCCAUGUCAAAAUAAUUAAAAC [Mat - Same State NG 1 - JL mod - D72] (Eterna round: R96, puzzle: Same State NG 1) | 34.8 | 26 | 26.9 |  |  | 
GGAGCCAAGGCAGGAUAUUCAUAUUAAAUAACAUGAGGAUCACCCAUGUAGGCCAGAAGGCCUUGGGAGAAGGGCCAUGGCUCG [Xeonanis - 13 mod21] (Eterna round: R96, puzzle: Same State NG 2) | 21.1 | 109 | 189 |  |  | 
GUAAGGCAAGCUUUUUUCUCGUAGUGUAAACAUGAGGAUCACCCAUGUGCUCGCCCUGGACCUUUGGAUCGCAGAAA [Tiesmain] (puzzle: Sensor for hsa-mir-208a) |  |  |  | 36.4 | 22.2 | 46.3
GCUCGAAUCACAACCAACAUGAGGAUCACCCAUGUGUGUUGGUAGGAUAUCGUUUCUAAGGGAAACGAGAAGGGCCGAACGAGC [SameState NG3 #8] (Eterna round: R96, puzzle: Same State NG 3) | 18.9 | 12.4 | 21.7 |  |  | 
AAAAAACAUGAGGAUCACCCAUGUCAAAAGACAUGAGGAUAUGUACAGACUUCGGUCUGUACAGAAGGCAUGUAAA [SS1 - 1015] (Eterna round: R96, puzzle: Same State 1) | 28.9 | 241 | 319 |  |  | 
UGAACCUUCACAGGAUAUCAUGCGAAAAUUGCGUGAGAAGGGUGAAUACGGUGUUCAUAGUUGCACAUGAGGAUCACCCAUGUA [SameState NG1 #54] (Eterna round: R96, puzzle: Same State NG 1) | 141 | 69.2 | 316 |  |  | 
GCUCGCGGCGCAGGAUAUGGGUGCCUGUACAUGAGGAUCACCCAUGUUAAGGGACGGAAAACGAACCAGAAGGGCGUCGCAAGC [Zaorquor] (Eterna round: R96, puzzle: Same State NG 2) | 56 | 167 | 140 |  |  | 
ACUCUCACAGUAGGAUAUGUAGGAUAUGCCUACAUGAGGAUCACCCAUGUAAACAUGGCAGAAGGACAGAAGGACUUACAUUGG [pwkr ssNG2 2FMN + 1F5.2] (Eterna round: R96, puzzle: Same State NG 2) | 31.7 | 197 | 408 |  |  | 
